{"source": "patent US20140295452A1", "about": "(PIERRE FABRE MEDICAMENT, published 2014)", "key": {"[1]": {"biological_target": "recombinant human c-Met-Fc protein (R&D Systems, cat. 358MT) (human) (UniProt P08581)", "sequence (P08581 25-932)": "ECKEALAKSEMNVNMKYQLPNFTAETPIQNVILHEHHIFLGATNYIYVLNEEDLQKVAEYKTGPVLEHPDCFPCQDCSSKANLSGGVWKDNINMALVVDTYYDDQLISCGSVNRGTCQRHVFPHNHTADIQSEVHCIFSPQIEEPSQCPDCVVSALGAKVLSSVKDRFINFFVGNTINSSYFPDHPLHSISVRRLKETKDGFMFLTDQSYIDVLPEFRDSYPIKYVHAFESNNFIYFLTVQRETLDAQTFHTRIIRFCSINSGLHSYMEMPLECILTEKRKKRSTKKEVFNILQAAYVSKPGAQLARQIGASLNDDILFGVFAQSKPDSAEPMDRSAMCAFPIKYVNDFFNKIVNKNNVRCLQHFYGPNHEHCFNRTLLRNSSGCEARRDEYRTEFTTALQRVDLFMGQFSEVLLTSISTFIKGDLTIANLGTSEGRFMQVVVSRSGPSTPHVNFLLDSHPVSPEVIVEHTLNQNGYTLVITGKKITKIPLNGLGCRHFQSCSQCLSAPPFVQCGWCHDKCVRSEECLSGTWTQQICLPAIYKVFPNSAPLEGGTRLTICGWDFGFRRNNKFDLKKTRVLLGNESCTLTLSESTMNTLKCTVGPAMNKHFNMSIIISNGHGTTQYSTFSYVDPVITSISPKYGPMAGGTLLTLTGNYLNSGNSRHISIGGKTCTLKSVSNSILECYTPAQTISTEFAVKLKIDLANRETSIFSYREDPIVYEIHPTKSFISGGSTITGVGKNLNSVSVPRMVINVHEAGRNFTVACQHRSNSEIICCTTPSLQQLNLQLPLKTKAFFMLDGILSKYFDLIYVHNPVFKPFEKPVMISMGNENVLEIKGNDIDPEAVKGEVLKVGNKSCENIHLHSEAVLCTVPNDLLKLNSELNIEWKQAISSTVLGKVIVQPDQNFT", "experiment": "displacement of [125I]-HGF (200 pM) from c-Met-Fc immobilized on protein A FlashPlate"}, "[2]": {"biological_target": "T1, human c-Met receptor, native, on tumor cells and tumor tissue (human, UniProt P08581 25-1390)", "T1 construct": "whole, on cells; Endogenous c-Met of human tumor cell lines, U87-MG xenografts and human tumor tissues; also called native c-Met; native receptor on tumor cells", "T1 sequence (P08581 25-1390)": "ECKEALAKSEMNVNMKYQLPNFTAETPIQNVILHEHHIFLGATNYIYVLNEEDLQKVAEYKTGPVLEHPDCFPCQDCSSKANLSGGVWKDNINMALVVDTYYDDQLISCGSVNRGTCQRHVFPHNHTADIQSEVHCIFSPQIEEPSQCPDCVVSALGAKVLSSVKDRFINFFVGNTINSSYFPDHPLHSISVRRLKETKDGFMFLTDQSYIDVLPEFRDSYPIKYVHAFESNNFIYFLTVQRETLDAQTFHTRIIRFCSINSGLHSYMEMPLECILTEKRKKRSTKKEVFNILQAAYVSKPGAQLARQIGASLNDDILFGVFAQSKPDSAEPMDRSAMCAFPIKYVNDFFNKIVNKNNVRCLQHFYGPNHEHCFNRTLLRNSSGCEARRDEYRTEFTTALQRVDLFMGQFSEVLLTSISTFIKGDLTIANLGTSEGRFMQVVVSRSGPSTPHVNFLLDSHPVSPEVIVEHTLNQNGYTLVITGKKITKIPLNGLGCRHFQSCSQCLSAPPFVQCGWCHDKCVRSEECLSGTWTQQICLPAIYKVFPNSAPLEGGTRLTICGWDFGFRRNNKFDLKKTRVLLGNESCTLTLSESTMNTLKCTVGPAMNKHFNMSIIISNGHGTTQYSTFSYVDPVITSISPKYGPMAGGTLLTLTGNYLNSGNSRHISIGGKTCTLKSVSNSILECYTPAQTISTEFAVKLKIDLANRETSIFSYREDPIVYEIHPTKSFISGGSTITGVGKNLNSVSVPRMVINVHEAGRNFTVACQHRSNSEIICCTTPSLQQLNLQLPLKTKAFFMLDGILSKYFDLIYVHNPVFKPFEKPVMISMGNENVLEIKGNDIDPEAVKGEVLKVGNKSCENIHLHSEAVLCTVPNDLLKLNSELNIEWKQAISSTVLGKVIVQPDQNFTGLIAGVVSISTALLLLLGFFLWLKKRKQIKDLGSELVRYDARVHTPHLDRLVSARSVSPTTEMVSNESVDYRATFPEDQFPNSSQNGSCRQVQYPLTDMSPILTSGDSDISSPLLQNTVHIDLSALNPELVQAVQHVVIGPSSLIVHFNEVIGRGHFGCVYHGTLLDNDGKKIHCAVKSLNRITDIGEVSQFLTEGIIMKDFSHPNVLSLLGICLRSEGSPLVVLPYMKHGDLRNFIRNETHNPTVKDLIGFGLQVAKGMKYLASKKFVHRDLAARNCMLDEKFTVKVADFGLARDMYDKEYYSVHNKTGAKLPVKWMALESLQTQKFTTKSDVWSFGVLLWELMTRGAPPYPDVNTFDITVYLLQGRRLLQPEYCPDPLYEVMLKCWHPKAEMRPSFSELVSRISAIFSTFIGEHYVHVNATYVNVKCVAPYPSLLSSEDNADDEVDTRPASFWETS", "experiment": "IHC on paraffin-embedded human breast and stomach tumor tissues"}, "[3]": {"biological_target": "T2, recombinant human c-Met-Fc protein (R&D Systems, cat. 358MT) (human, UniProt P08581 25-932)", "T2 construct": "extracellular domain; Bought reagent (R&D Systems 358MT / 358-MT/CF); also called rh c-Met-Fc; HGF-R/Fc chimera protein; not shown: Fc part; polyhistidine tag implied by capture on an anti-polyhistidine Mab; not described", "T2 sequence (P08581 25-932)": "as the sequence (P08581 25-932) above", "experiment": "Biacore, c-Met-Fc captured by anti-polyhistidine Mab, 224D10 injected second at 20 µg/ml"}, "[4]": {"biological_target": "T2, recombinant human c-Met-Fc protein (R&D …)", "experiment": "displacement of [125I]-HGF (200 pM) from c-Met-Fc immobilized on protein A FlashPlate"}}, "data": [{"molecule": "5D5 anti-c-Met Mab (Genentech, hybridoma at the ATCC) (antibody)", "values": [{"measurement": "IC50", "setting": "[1]", "result": 4.4, "unit": "nM"}]}, {"molecule": "murine 224D10 monoclonal antibody (antibody, V domains shown, Whole murine monoclonal antibody secreted by hybridoma CNCM I-3949; a murine IgG1 (9G4) served as its isotype control; also called m224D10; 224D10 Mab) VH: DLQLQESGPGLVKPSQSLSLTCSVTGYSITSAYFWSWIRQFPGNKLEWMGFINYDGTNNYNPSLKNRISITRDTSKNQFFLRLNSVTTDDTATYYCTRDRTFAYWGQGTLVTVSA VL: DIVLTQSPATLSVTPGDRVSLSCRASQRIYNYLHWYQQKSHESPRLLIKYASQSISGIPSRFSGSGSGTDFILTINSVETEDFGMYFCQQSNSWPLTFGAGTKLELR", "values": [{"measurement": "binding result", "setting": "[2]", "result": "binds"}, {"measurement": "binding result", "setting": "[3]", "result": "binds"}]}, {"molecule": "11E1 anti-c-Met Mab (antibody, V domains shown) VH: QVQLQQSGAELAKPGASVKMSCKASGYTFTSYWMNWVKQRPGQGLEWIGYINPTTGSTDYNQKLKDKATLTADKSSNTAYMQLSSLTSEDSAVYYCAIGGYGSWFAYWGQGTLVTVSA VL: QIVLTQSPAIMSASPGEKVTLTCSASSSVSSTYLYWYQQKPGSSPKLWIYTTSILASGVPARFSGSGSGTSYSLTISSMETEDAASYFCHQWSSYPFTFGSGTKLDIK", "values": [{"measurement": "IC50", "setting": "[4]", "result": 42, "unit": "nM"}]}]}
